Series [1] deals with T1, CRP (N-his-CRP) (Shewanella oneidensis MR-1) (UniProt Q8EJ49).
T1 sequence: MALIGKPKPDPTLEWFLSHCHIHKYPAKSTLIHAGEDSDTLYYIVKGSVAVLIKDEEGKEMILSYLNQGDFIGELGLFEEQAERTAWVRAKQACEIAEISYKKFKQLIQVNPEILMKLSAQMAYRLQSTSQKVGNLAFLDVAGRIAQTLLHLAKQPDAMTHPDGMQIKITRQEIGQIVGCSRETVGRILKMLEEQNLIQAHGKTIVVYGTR
As to the kind of experiment: EMSA. To be noted: 20 ul: 2 nM Cy3-labeled probe, 50 ng N-his-CRP, 50 uM cAMP, buffer as in Kasai et al. 2015 (salt, pH, temperature not given). On the technique in general: In EMSA bound probe runs differently from free probe, usually more slowly.

For a further series, the target named is CRP (N-his-CRP) (Shewanella oneidensis MR-1, UniProt Q8EJ49 1-211). The series can be described thus: EMSA; 50 uM cAMP; EMSA, 20 ul: 2 nM Cy3-labeled probe, 50 ng N-his-CRP, 50 uM cAMP; buffer as in Kasai et al. 2015 (salt, pH, temperature not given). The conditions noted are these: protein: recombinant; tags: N-terminal His tag; chain copies: 2; label: 5'-Cy3 (forward strand); blunt.

In the case of “GGATCAGTTAATTGCAATACTGATAGCTAATTTAATGAAAATTTCCTTTTTTATAACTATCTGACATGTTTTTTAAAAAAATATTTGAATGGAGTTATATATACCCCACTCTTTAAGTGACA (double strand) [PBlldP1]”, the binding entry in series [1] was “no binding”. Still for that read-out and setting: next, “GGATCAGTTAATTGCAATACTGATAGCTAATTTAATGAAAATTTCCTTTTTTATAACTATCTGACATGTTTTTTAAAAAAATATTTGAATGGAGTTATATATACCCCACTCTTTAAGTGACACCGATCACAGTTAAGAAAATCCCATGAGAGAAGCCTCCCGCAGCACTGTAAATTAGCATT (double strand) [PBlldP2]”: “binds”.

B1: PBlldP3 (dsDNA)
DNA 1: ATATACCCCACTCTTTAAGTGACACCGATCACAGTTAAGAAAATCCCATG
DNA 2: CATGGGATTTTCTTAACTGTGATCGGTGTCACTTAAAGAGTGGGGTATAT
On to B1, for which the binding result with CRP (N-his-CRP) is on record as “binds”.

B2: PBlldP3m (dsDNA)
DNA 1: ATATACCCCACTCTTTACCCCCCACCGAGGGGGGTTAAGAAAATCCCATG
DNA 2: CATGGGATTTTCTTAACCCCCCTCGGTGGGGGGTAAAGAGTGGGGTATAT
Take B2: in the series with CRP (N-his-CRP), the binding result was “no binding”.

The record behind these values is PMC5432575, “CRP Regulates D-Lactate Oxidation in Shewanella oneidensis MR-1”.
